This note sets out measurements from paper PMC8936114.

As a reminder, the Kd is the constant that tells how readily two partners part at equilibrium. The low end stands for higher affinity, the high end for lower affinity.

This data set concerns the target NSP12 (RNA-dependent RNA polymerase) (SARS-CoV-2, UniProt P0DTD1 4393-5324). Put plainly: filter binding; 20 mM Tris, 200 mM KCl, room temperature, 1 h; pH not stated; […]. The conditions noted are these: protein: commercial; tags: His; label: 3' biotin; stem loops.

B1: Scov2_7431_7555_RNA (structured_RNA)
RNA: GGGCGAAAACGCCCCAUUUUAUUAUGUAUGGAAAAGUUAUGUGCAUGUUGUAGACGGUUGUAAUUCAUCAACUUGUAUGAUGUGUUACAAACGUAAUAGAGCAACAAGAGUCGAAUGUACAACUAUUGUUAAUGGUGUU
modifications: 3' biotinylation (Pierce RNA 3' End Biotinylation Kit)
B1 returned a dissociation constant (Kd) of 17 nM.
